test: soluble on expression in E. coli; label from the status in PepcDB or PDB records

Sequence | soluble on expression in E. coli
MITHAQTILCLDLGSKTGWAICGADGHIFSGVMNFQPRRFEGGGMRYLRFKQWLTEMKMTARRIDAVYFEEVRRHVGTDAAHVYGGLLATLTAWCEHHQIPYEGIPVGTIKKETTGKGNASKEEMIKAVCAKGHAPKDDNEADALAILYLMKEGGVYVQ | not soluble
MITILGPTACGKTRLAVSLAYRLETEIISADSRQIYRGMDIGTGKDLADYQVGGTTIPCHLIDIRPAGDKYNLFAYQHDFHQAYASILARGMDPILCGGTGMYIEAVLKGYHLPDVPPNPTLRDRLQGKSLTELTLILAAYGPLHNKTDVDSAQRAIRAIEIAEYIKNNPVESTEFPPIDSLIIGLDLDRDTRRKRITDRLHARMHEGMIEEVKGLLDSGIPAEDLIYYGLEYKFVTLYLTGQTDYESMFTGLETAIHQFAKRQMTWFRGMERRGFLIHWIDALLPADEQCEAVMKLYGANGLEHHHHHH | soluble
MITLAVDAMGGDQGLAVTVPGATAFLQAHPDVRLIMTGDETQLRQALTAAGAPMERIDICHTTQVVGMDEAPQSALKNKKDSSMRVAINQVKEGKAQAAVSAGNTGALMATARFVLKTIPGIERPAIAKFLPSDTDHVTLALDLGANVDCTSEQLAQFAVIGSELVHALHPQKGQPRVGLVNVGTEDIKGTDTVKQTYKLLQNSKLNFIGNIESNGILYGEADVVVADGFVGNVMLKTIEGAVKFMSGAIRREFQSNLFNKLAAVAALPALKGLKNKLDPRKFNGAILLGLRGIVIKSHGGTDETGFRYALEEAYHEAKSAGLSKIEQGVAEQLAALETAKAVQNENVGGL | not soluble
MITLPTGTKIWIIAGITDMRCGFNGLASKVQNTLKDDPFSGHIFVFRGRSGKMVKILWADRDGLCLFAKRLERGRFVWPVTREGKVHLTPAQLSMLLEGIAWPHPKRTERPGIRI | not soluble
MITMIYKGNRAAWAYIVARTKVMKSRLLKPEDFRKLLNMEFDEIVRYIGETEYKKEIDELGYKFTGPRLLDHALYANLARTYRKLIEVSFGASKFLIMKYLEKWDVWNIINIIRGKMANVQPEVVDDILVPAGERDMDFWKTLLVKDIEEIVKSFEGTPYYEPLSKIGSEDMSKIEDGLYKVYYRELLKLNPSDFAMKLFLDFIKMEIDIRNVKTLLRLKAEDATPDEIMECTIPGGYELTEEELRKLAAMPIDEMIKALEGYWFWNDVQIEGKEVAAVEIEFDKVWIKTISKRASNYPLSILPVLQYIVLKKVEVDNLRVLGWGKYYGLPSEEIERQMVIL | not soluble
MITVLRINHRPYRDKRITTHVALTARAFGASAILVDERDETLENTIRGVISNFGGSFSIKTGCNWIQEFKHFQGIRVHLTMYGRRINDVIDEIRNSGKDVMVLVGSEKVPIEAYEIADYNVSVTNQPISEVSALAIFLDRYFQGKEFEFEFRGRINVQPAERGKIVKIIPDEIECLDLLKKYGASEQLIEHVKAVEGLALKIAERCNADKRVIVAGSLLHDIGRTRTNGIDHAVAGAEILRSENIHDSVVSAVERHIGAGITREEAARLGLPEKDYVPETLEEMIVAQADNLFAGNKRLRLEEVLNIYRKRGLDSAAERIKELHRRISAIAGIDIDEIRLEHHHHHH | soluble
MIVAIIDGYTDEPAGLGVPPYLGLYPRYAYGAIKKARRDANIFYLTIDDLRATFEGEQGIKTKNKTPNFPKVKEILEKAEVIVFIGGLHTPGKYLSAVPGSVEEVSKFISHYNGVKVLGGPAFMGSAKIGGVKVTTKELRFAEEVFDYVVYGDIEAFLFDYFSGRELDPFRFRDYEELQPYALLGAEVVKQFPGYPEFVLIEIETQRGCPKAMGIGGCSFCTEPVRYRVVENRPQEYVAQEVKVFYNLGIRHFRIGRQSCIFSYMAKPNGRVPIPNPEEVEKLFKAVRLAAPNVKTLHVDNANPAVIANYPEESKRIAKAIIRYGTPGNVVAFGLETADPKVARINNLNATPEETYEAVKIINEVGGKRGYNGLPWLLPGINIIFGLPGETKRTYELTYEFLKKILDDGLMVRRINIRQVVVFPGTPLWNMRDKVKTEKHKKLIEHYRHKIRHEIDLPMLKRIVPVGTILRDVRAEIYDGELTFGRQFGSYPLIVGIPKRVELDRYYDVMIVDHGLRSVTGIPVPIDVNGESSKVLRWLPGIGKKTLARILAKRPFKSEEEFLSLLPEDVKKMYKGKIKV | soluble
MIVCMSVSLLRSYAVRRALGALVVAGFLGAGVTGCSNDAGAKTENTVDGSPTPVSTPTDGEGDGAGEPVEETPAEPEQRPTPVEPEAMKTGDKAGAIAAAQYFVEVIEYSMHTSTTDLLEKYSYEHCDRCAHFVEVINTRQEKNVLPKSVVINSSQEGHPEFRGEGAIIWRVPMRLQISEQWETGKEPRKEDVKVSISVANENGRWVLVGIVAED | not soluble
